What was measured:
Experiment in all cases: FP
[1] = molecular target: His6-IDO1 K101A, purified (human, UniProt P14902 1-403, K101A, Alexa Fluor 488 on Cys groups)
[2] = molecular target: His6-IDO1 K101D, purified (human, UniProt P14902 1-403, K101D, Alexa Fluor 488 on Cys groups)
[3] = molecular target: N-terminally His6-tagged human IDO1 (indoleamine 2,3-dioxygenase 1), purified apo-IDO1 (human, UniProt P14902 1-403, Alexa Fluor 488 on Cys groups (in the fluorescence polarisation assay only))
N-terminally His6-tagged human IDO1 (indoleamine 2,3-dioxygenase 1), purified apo-IDO1, sequence (P14902 whole entry): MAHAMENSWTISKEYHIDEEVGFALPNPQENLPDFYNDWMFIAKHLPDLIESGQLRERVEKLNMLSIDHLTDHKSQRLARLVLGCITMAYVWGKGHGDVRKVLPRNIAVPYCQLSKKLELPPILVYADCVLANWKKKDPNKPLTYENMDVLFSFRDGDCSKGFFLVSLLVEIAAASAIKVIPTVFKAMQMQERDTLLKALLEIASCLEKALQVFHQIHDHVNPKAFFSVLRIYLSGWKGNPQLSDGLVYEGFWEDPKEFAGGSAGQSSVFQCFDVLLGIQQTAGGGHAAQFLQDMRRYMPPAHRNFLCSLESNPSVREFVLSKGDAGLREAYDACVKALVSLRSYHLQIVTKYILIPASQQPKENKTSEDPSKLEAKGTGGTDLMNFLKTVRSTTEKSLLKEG

Kd [1]: 4.66 µM
Kd [2]: 4.45 µM
Kd [3]: 1790 nM
B1: human recombinant TC-GAPDH (GAPDH with a tetra-Cys insertion sequence near its heme binding site), wild type, purified (enzyme)
chain: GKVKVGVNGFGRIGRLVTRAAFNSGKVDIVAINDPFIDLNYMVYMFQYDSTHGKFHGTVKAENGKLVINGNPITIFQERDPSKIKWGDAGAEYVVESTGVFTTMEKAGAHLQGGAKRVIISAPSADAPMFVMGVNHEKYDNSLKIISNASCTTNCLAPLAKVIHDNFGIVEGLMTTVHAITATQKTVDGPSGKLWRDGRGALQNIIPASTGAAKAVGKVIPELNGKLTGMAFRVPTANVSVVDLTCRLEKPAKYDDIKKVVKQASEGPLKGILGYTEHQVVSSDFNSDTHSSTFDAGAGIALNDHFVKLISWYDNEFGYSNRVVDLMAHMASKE
